Assay results taken from PMC9225675 (mAbs, 2022).

Target: T1, LukF component of Panton-Valentine Leukocidin (LukF-PV) (Staphylococcus aureus, strain )
T1 chain: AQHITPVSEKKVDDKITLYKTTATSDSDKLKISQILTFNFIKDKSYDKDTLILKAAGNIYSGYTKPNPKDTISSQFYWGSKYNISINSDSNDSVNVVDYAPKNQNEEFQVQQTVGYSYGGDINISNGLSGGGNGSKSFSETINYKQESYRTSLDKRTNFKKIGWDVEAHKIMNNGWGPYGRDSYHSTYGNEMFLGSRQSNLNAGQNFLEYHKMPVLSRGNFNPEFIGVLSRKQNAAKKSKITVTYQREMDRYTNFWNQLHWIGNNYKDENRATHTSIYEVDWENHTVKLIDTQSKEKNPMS
Assay: BLI

B1: H5 mAb (broadly neutralizing antibody) (antibody, V domains shown)
VH: EVQLQESGPGLVRPSETLSLTCAVSGYSISSGMGWGWIRQPPGKGLEWIGSIDQRGSTYYNPSLKSRVTISVDTSKNQFSLKLSSVTAADTAVYYCARDAGHAVDMDVWGKGTTVTVSS
VL: DIQMTQSPSSVSASVGDRVTITCRASQGISRWLAWYQQKPGKAPKLLIYAASSLQSGVPSRFSGSGSGTDFTLTISSLQPEDFATYYCQQGYVFPLTFGGGTKVEIK
B1 showed a Kd of 0.4 nM.
